The values that follow come from the nanobody polyreactivity screen of Harvey et al. (2022).

A short description of the data set: yeast display, Sf9 membrane polyspecificity reagent, FACS + sequencing; frameworks hold sequencing errors. Put shortly: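 Genes from sorted yeast were amplified by colony PCR, read by MiSeq 2 × 250 sequencing and filtered on CDR length. These cells carried a synthetic nanobody library in Saccharomyces cerevisiae BJ5465 and were sorted by FACS into low and high (top ~1%) gates on anti-HA and streptavidin fluorescence. Polyreactivity is labelled according to the gate of origin.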
As to “QVQLVESGGGLVQAGGSLRLSCAASGSIFQAYAMGWYRQAPGKERELVASISQSGDSTYYADSVKGRFTISRDNAKNTVYLQMNSLNPVDTAVYYCAAVQYGHRRGRVSVRRRLDYWGQGTQVTVSS”, the “polyreactivity (PSR sort gate)” value is on record as “low polyreactivity”.

Regarding “QVQLVESGGGLVQAGGSLRLSCAASGSIFQCYTMGWSRQAPGKERELVAAISSTGSTNYADCVMGRFTISLDNAKNTVYLQMNSMNPEDTAVFYCAGVGTYLAGYQFDYWGQGTQVTVSS”, the “polyreactivity (PSR sort gate)” value is recorded as “low polyreactivity”.

For the sequence “QVQLVESGGGLVQAGGSLRLSCAASGSIFQDNTMGWYRQAPGKERELVAAISWSATSTYYADSVTGRFSISRDNAKNTVYLQMNRLKPEDTAVYDCAAGRSYRRYAYYYWGQGTQVTVSS”, the “polyreactivity (PSR sort gate)” value is listed as “high polyreactivity”.

Regarding “QVQLVESGGGLVQAGGSLRLSCAASGSIFQFYAMGWYRQAPGKERELVADISYGGSTYYADSVKGRFTISRDNAKKTVYLQMNSLKPEDTAVYYCAAAAYWWVKGFGSYYWGQGTQVTVSS”, the “polyreactivity (PSR sort gate)” value is on record as “high polyreactivity”.

Consider “QVQLVESGGGLVQAGGSLRLSCAASGSIFQFYAMGWYRQAPGKERELVAVITTSGVSTYYADSVKGRFTISRDNAKNTVYLQMNSLKPEATAVYYCAADDYYLAGDYWGQGTQVTVSS”, for which the “polyreactivity (PSR sort gate)” value is “low polyreactivity”.

Take “QVQLVESGGGLVQAGGSLRLSCAASGSIFQLNAKGWYRQAPGKERELVAAITWSGDSTYYADSVKGRFTISRDNAKNTVYLQMNSLKPEDTAVYYCAADVLTTPPPREFEYWGQGTQVTVSS”: the “polyreactivity (PSR sort gate)” value was “high polyreactivity”.

With “QVQLVESGGGLVQAGGSLRLSCAASGSIFQPYAMGWYRQAPGKERELVAAISSSGGSTTYADSVKGRFTISRDNAKNTVYLQMNSLKPEDTAVYYCAADSADDMGYWGQGTQVTVSS”, the “polyreactivity (PSR sort gate)” value was “low polyreactivity”.

For the sequence “QVQLVESGGGLVQAGGSLRLSCAASGSIFQPYAMGWYRQAPGKERELVAAITNGGSTYYADSVKGRFTISRDNAKNTVYLQMNSLKPEDTAVYYCAADVQSSHEYDYWGQGTQVTVSS”, the “polyreactivity (PSR sort gate)” value was “low polyreactivity”.

“QVQLVESGGGLVQAGGSLRLSCAASGSIFQRYAMGWYRQAPGKERECVAAISGRGGSTYYADSVKGRFTISRDNAKNTVYLQMNSLKPEDTAVYYCAADSSRFYGRPRYYYWGQGTQVTVSS”: the “polyreactivity (PSR sort gate)” value is “high polyreactivity”.

In the case of “QVQLVESGGGLVQAGGSLRLSCAASGSIFQRYTMGWYIQAPGKERELVAAISWSGDGTYYADSVKGRFTISRDNAKNTFYLQMNSLKPEDTAVYYCNDGYTRRYRFRVENDYDYWGQGTQVTVSS”, the “polyreactivity (PSR sort gate)” value was “high polyreactivity”.

In the case of “QVQLVESGGGLVQAGGSLRLSCAASGSIFQSNAMGWSRQAPGKERELVAAISSRGGRTYYADSVKGRFTISRDNAKYTVYLQLNSLKPEDTAVYYCAVVPFTEHDYWGQGTQVTVSS”, the “polyreactivity (PSR sort gate)” value was “high polyreactivity”.

On to “QVQLVESGGGLVQAGGSLRLSCAASGSIFQSYAMGWYRQAPGKERELVAGISSDGSTYYADSVKGRFTISRDNAKNTVYLQMNSLKPEDTAVYYCAAERWGNPTDYQFWRPYDYWGQGTQVTVSS”, for which the “polyreactivity (PSR sort gate)” value is “low polyreactivity”.

On to “QVQLVESGGGLVQAGGSLRLSCAASGSIFQVNAMGWYRQAPGKERELVAANRSGGRTTYADSVKGRFTISRDNAKNTVYLQMISLKTEDTAVYYGAAPLYYKSWTYPRLRSGYWGQGTQVTVSS”, for which the “polyreactivity (PSR sort gate)” value is “high polyreactivity”.

On to “QVQLVESGGGLVQAGGSLRLSCAASGSIFQWNAMGWYRQAPGKERELVAAMSWSGTRTYYADSVKGRFTISRDNAKNTVYLQMNSLKPEDTAVYDCAFRGGKPTYRYDYWGQGTQVTVSS”, for which the “polyreactivity (PSR sort gate)” value is on record as “high polyreactivity”.

On to “QVQLVESGGGLVQAGGSLRLSCAASGSIFQWYAMGWYRQAPGKERELVAAITISGTRTYYADSVKGRFTISRDNAKYTVYLQMNSLKPEDTAVYYCAATEGGRFRRIADASMYYWGQGTQVTVSS”, for which the “polyreactivity (PSR sort gate)” value is “high polyreactivity”.

Regarding “QVQLVESGGGLVQAGGSLRLSCAASGSIFQYNAMGWSRQAPGKERELVAAISSRGGITYYADSVKGRFTISRDNAKNTVYLQMNSLKPEDTAVYYCAAEAYYSEVRWYEYWGQGTQVTVSS”, the “polyreactivity (PSR sort gate)” value is reported as “high polyreactivity”.

Regarding “QVQLVESGGGLVQAGGSLRLSCAASGSIFQYNAMGWYREAPGHEWELVAVISRSGSRTYYADSVKGRFTISRDNAKNTVYLQMNSLKPEDTAVYYCAADIWFYTYYGYDYWGQGTQVTVSS”, the “polyreactivity (PSR sort gate)” value was “high polyreactivity”.

For the sequence “QVQLVESGGGLVQAGGSLRLSCAASGSIFQYNAMGWYRQAPGKEREFVADISYSGGTTDYADSVKGRFTISRDNAKNTVYLQMNRLKPEDTAVYYCNADLSSGYPYSYYSATEYDYWGQGSQVTVSS”, the “polyreactivity (PSR sort gate)” value is recorded as “low polyreactivity”.

For the sequence “QVQLVESGGGLVQAGGSLRLSCAASGSIFQYNAMGWYRQAPGTERELVAAITWTGTSTYADSVKGRFTISRDNAKNTVYLQMNSLKPEDTAVYYCAARYYAPRWFRYDYWGQGTQVTVSS”, the “polyreactivity (PSR sort gate)” value is listed as “low polyreactivity”.

For the sequence “QVQLVESGGGLVQAGGSLRLSCAASGSIFQYNAMGWYRQVPGKERELVAAITSGGSTYADSVKGRFTISRDNAKNTVYLQMNSLKPEDTAVYYCNADRWFGNYLHLTFLNDYWGQGTQVTVSS”, the “polyreactivity (PSR sort gate)” value is reported as “low polyreactivity”.

Consider “QVQLVESGGGLVQAGGSLRLSCAASGSIFQYNVKGWYRQEPGKEREFVADISSSGGSTYYADSVKGRFTISRDNAKNTVYLQMNSLKPEDTAVYYCNADPGYVFYRDEYWGQGTQVTVSS”, for which the “polyreactivity (PSR sort gate)” value is recorded as “low polyreactivity”.

Take “QVQLVESGGGLVQAGGSLRLSCAASGSIFRANAMGGYRQAPGKERELVATISSGGSTNYADSVKGRFTISRDNAKNTVYLQMNSLKPEDTAVYYCAVKWYPPGHDYWGQGTQVTVSS”: the “polyreactivity (PSR sort gate)” value is “low polyreactivity”.

Consider “QVQLVESGGGLVQAGGSLRLSCAASGSIFRANAMGWYRQAPGKERELVAAISYSGGSTYYADSVKGRFTISRDNAKNTVYLQMNTLKPEDTAVYYCAAEFLYASVYYSYWGQGTQVTVSS”, for which the “polyreactivity (PSR sort gate)” value is recorded as “high polyreactivity”.

Consider “QVQLVESGGGLVQAGGSLRLSCAASGSIFRANVLGWYRKAPGKERELVAAISRGGGTTYYADSVKGRFTISRDNAKNTVYLQMNSLKPEDTAVYYCAALGHYRSNNNVDMDYWGQGTQVTVSS”, for which the “polyreactivity (PSR sort gate)” value was “high polyreactivity”.

For “QVQLVESGGGLVQAGGSLRLSCAASGSIFRAYALGWYRQAPGEERELVAAISWRAGRTYYADSVKGRFTISRDNAKNTVYLQMNSLKPEDTAVYYCAARKRAQQGTRDHDYWGQGTQVTVSS”, the “polyreactivity (PSR sort gate)” value was “high polyreactivity”.

Take “QVQLVESGGGLVQAGGSLRLSCAASGSIFRAYAMGWYRQAPGKERELVAAISIGGRTYYADSVKGRFTISRDNAKNTVYLQMNSLKPEDTAVYYCAAVRSYVKGGMYYWGQGTQVTVSS”: the “polyreactivity (PSR sort gate)” value was “low polyreactivity”.

As to “QVQLVESGGGLVQAGGSLRLSCAASGSIFRAYAMGWYRQAPGKERELVAAISWGGGSTSYADSVKGRFTISRDNAKNTVYLQMNSLKPEDTAVYFCNKVSFSKRRDYYWGQGTQVTVSS”, the “polyreactivity (PSR sort gate)” value is “high polyreactivity”.

As for “QVQLVESGGGLVQAGGSLRLSCAASGSIFRAYAMGWYRQAPGKERELVAAISWGGGSTSYADSVKGRFTISRDNAKNTVYLQMNSLKPEDTAVYYCNKVSFSKRRDYYWGQGTQVTVSS”, the “polyreactivity (PSR sort gate)” value is listed as “high polyreactivity”.

Consider “QVQLVESGGGLVQAGGSLRLSCAASGSIFRAYAMGWYRQAPGKERELVAAITRGGSTNYADSVKGRFTISRDNAKNNVYLQMKSLKPEDTAVYYCAAQNYWYYPRRFDYWGQGTQVTVSS”, for which the “polyreactivity (PSR sort gate)” value is given as “high polyreactivity”.

“QVQLVESGGGLVQAGGSLRLSCAASGSIFRAYAMGWYRQAPGKERELVAGITKSGGSTYYADSVKGRFTISRDNAKNTVYLQMNILKPEDTAVYYCAAYRSRTYGYWGQGTQVTVSS”: the “polyreactivity (PSR sort gate)” value is reported as “high polyreactivity”.
